Measurements published in article PMC12126490 (2025).

Target: chromoshadow domain of HP1α (HP1αCSD, aa 109–185 of HP1α) (human, UniProt P45973 109-185)
Sequence (P45973 109-185): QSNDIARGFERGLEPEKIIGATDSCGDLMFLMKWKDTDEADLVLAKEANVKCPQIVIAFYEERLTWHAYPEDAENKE

- Kd: 1600 nM
B1: HP1 box-containing KAP1 peptide (KAP1_(Hbox), aa 483–493 of KAP1) (peptide)
peptide: RKVPRVSLERL
